Data published in US20100240033A1 (INSTITUT NATIONAL DE LA SANTE ET DE LA RECHERCHE MEDICAL …, published 2010).
Changes are numbered by the printed parent chain.

Key:
[1] = molecular target: T1, wild-type human prolactin receptor (PRLR), isoform 1 (human, UniProt P16471 25-622); test: cell-based or functional assay
T1 sequence: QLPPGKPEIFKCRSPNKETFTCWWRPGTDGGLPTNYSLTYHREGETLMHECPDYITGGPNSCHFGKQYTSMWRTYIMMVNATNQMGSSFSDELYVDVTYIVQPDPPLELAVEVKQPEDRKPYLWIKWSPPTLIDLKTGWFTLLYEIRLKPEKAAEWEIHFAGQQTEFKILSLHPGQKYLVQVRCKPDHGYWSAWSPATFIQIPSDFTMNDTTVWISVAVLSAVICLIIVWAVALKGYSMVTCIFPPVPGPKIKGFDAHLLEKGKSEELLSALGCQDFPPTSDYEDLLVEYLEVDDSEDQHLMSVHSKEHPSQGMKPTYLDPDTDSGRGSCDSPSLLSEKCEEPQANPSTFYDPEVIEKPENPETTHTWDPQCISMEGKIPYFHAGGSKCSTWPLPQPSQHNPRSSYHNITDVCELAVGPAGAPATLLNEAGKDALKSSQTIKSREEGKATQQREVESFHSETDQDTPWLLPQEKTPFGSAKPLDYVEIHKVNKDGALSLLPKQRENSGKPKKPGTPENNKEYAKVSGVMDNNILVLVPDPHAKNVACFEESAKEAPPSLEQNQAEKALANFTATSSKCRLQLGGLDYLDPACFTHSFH

[2] = molecular target: T2, human prolactin receptor mutant I76V (human, UniProt P16471 25-622); test: cell-based or functional assay
T2 sequence: T1 sequence with I76V

[3] = molecular target: T1, wild-type human prolactin receptor …; test: radioligand competition ([125I]-hPRL vs unlabeled hPRL) on homogenates of stably transfected HEK 293 cells, Scatchard analysis
Description: (§1) Binding affinities of mutated PRLR for hPRL were determined using cell homogenates of stably transfected HEK 293, following a procedure previously described (KINET et al., J Biol Chem, 274, 26033-26043, 1999). Briefly, recombinant hPRL, produced in bacteria E. coli using the pT7L expression vector, and purified as described previously (PARIS et al., Biotechnol Appl Biochem, 12, 436-449, 1990), was iodinated using the Iodogen method, and its specific activity was in the range of 4-5 μCi/μg. Binding assays were performed overnight at room temperature using 150-300 μg cell homogenate protein in the presence of 20,000-30,000 cpm [¹²⁵I]-hPRL and increasing concentrations of unlabeled hPRL (competitor). Scatchard analysis was performed to determine the binding affinity of mutated PRLR and the number of PRLR per cell in stable clones or populations.

[4] = molecular target: T2, human prolactin receptor mutant I76V; test: as above
Description: as §1

fold stimulation of LHRE-luciferase activity induced by PRL (stable HEK 293 clones, 1 ug/ml PRL) [1]: 8 fold
fold induction of LHRE-luciferase activity by PRL (transient transfection, HEK 293) [2]: 5 fold
Kd [3]: 0.64 nM
Kd [4]: 0.44 nM
B1: recombinant human prolactin (hPRL) (ligand, UniProt P01236 29-227, looked up)
chain: LPICPGGAARCQVTLRDLFDRAVVLSHYIHNLSSEMFSEFDKRYTHGRGFITKAINSCHTSSLATPEDKEQAQQMNQKDFLSLIVSILRSWNEPLYHLVTEVRGMQEAPEAILSKAVEIEEQTKRLLEGMELIVSQVHPETKENEIYPVWSGLPSLQMADEESRLSAYYNLLHCLRRDSHKIDNYLKLLKCRIIHNNNC
modifications: tracer form iodinated (125I, Iodogen method); unlabeled hPRL used as competitor
notes: Recombinant hPRL from bacteria; also called WT hPRL; [125I]-hPRL
